Data reported in PMC7395460, “Structural mechanism of helicase loading onto replication origin DNA by ORC-Cdc6” (Proceedings of the National Academy of Sciences of the …, 2020).

What was measured:
Settings in all cases: both partners purified
Orc1 = target: T1, Orc1 (S. cerevisiae, UniProt P54784 1-914); experiment: cryo-EM structure; semi-attached OCCM, 4.3 Å; assembled from purified ORC, Cdc6, Cdt1 and mutant Mcm2-7 on pUC19-ARS1 DNA beads with 3 mM ATPγS, 15 min at 24 °C, eluted with DNase I
T1 construct: Orc1, subunit of the S. cerevisiae origin recognition complex; Stood in the assay as a subunit of ORC
T1 sequence: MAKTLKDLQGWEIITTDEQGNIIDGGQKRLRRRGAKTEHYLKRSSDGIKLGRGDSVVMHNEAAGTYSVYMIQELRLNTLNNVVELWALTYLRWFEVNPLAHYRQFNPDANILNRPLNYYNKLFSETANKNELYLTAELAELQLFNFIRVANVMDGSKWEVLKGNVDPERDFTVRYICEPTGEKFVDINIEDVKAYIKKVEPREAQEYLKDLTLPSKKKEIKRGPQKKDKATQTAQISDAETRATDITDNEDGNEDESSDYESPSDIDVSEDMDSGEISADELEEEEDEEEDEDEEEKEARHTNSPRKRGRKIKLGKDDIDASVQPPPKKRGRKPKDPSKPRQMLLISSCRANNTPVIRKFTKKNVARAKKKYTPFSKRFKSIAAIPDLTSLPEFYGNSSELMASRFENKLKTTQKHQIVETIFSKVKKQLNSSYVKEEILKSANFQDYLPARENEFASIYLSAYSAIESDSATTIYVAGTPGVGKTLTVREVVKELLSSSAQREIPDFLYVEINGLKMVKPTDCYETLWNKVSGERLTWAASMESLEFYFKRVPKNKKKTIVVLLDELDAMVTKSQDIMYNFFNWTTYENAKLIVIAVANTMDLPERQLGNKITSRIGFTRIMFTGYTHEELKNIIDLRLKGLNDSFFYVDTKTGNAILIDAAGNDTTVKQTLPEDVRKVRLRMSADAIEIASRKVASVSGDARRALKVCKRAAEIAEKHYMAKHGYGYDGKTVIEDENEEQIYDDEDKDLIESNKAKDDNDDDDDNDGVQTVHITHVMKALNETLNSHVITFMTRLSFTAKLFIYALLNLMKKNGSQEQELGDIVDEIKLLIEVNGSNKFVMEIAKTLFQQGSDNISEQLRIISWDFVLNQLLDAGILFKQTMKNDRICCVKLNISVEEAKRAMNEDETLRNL

[1] = target: T2, origin recognition complex (Orc1-6; ORC) (S. cerevisiae, UniProt P54784 1-914; P32833 1-620; P54790 1-616; P54791 1-529; P50874 1-479; P38826 …); experiment: as above
T2 construct: Orc1, subunit of the S. cerevisiae origin recognition complex; Orc2, subunit of the S. cerevisiae origin recognition complex; Orc3, subunit of the S. cerevisiae origin recognition complex; Orc4, subunit of the S. cerevisiae origin recognition complex; Orc5, subunit of the S. cerevisiae origin recognition complex; Orc6, subunit of the S. cerevisiae origin recognition complex; copies: + + + + +

Mcm7 = target: T3, Mcm7 (S. cerevisiae, UniProt P38132 1-845); experiment: cryo-EM structure; pre-insertion OCCM, 8.1 Å; same loading reaction (purified ORC, Cdc6, Cdt1, mutant Mcm2-7, ARS1 DNA, ATPγS); models docked as rigid bodies
T3 construct: Mcm7 of S. cerevisiae; Stood in the assay as a subunit of the mutant Mcm2-7; in the semi-attached OCCM only its WHD is resolved
T3 sequence (looked up): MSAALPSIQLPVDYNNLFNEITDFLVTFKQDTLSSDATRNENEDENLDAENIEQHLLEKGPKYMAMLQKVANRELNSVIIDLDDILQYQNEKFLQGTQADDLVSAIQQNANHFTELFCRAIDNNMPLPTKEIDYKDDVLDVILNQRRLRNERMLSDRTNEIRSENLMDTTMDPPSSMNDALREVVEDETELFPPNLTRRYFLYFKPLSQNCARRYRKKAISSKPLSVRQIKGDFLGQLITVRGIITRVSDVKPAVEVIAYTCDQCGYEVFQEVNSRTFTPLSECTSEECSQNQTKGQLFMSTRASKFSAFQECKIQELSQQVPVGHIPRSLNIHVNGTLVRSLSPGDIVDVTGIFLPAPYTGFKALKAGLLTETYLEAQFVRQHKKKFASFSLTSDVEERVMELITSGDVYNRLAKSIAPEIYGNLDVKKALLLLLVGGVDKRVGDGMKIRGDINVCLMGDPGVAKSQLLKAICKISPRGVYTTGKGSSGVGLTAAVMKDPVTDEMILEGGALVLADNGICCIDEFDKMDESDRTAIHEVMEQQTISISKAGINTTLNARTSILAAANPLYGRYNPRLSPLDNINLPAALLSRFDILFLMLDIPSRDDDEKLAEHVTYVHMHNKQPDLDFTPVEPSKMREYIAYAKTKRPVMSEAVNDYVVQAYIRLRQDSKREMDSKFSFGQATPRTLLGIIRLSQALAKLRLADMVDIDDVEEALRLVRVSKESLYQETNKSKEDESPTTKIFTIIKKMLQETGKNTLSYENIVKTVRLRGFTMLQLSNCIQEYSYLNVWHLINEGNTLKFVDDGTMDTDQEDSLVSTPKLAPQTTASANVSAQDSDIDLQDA

Mcm3 = target: T4, Mcm3 (S. cerevisiae, UniProt P24279 1-971); experiment: as above
T4 construct: Mcm3 of S. cerevisiae; Stood in the assay as a subunit of the mutant Mcm2-7; in the semi-attached OCCM only its WHD is resolved
T4 sequence (P24279 whole entry): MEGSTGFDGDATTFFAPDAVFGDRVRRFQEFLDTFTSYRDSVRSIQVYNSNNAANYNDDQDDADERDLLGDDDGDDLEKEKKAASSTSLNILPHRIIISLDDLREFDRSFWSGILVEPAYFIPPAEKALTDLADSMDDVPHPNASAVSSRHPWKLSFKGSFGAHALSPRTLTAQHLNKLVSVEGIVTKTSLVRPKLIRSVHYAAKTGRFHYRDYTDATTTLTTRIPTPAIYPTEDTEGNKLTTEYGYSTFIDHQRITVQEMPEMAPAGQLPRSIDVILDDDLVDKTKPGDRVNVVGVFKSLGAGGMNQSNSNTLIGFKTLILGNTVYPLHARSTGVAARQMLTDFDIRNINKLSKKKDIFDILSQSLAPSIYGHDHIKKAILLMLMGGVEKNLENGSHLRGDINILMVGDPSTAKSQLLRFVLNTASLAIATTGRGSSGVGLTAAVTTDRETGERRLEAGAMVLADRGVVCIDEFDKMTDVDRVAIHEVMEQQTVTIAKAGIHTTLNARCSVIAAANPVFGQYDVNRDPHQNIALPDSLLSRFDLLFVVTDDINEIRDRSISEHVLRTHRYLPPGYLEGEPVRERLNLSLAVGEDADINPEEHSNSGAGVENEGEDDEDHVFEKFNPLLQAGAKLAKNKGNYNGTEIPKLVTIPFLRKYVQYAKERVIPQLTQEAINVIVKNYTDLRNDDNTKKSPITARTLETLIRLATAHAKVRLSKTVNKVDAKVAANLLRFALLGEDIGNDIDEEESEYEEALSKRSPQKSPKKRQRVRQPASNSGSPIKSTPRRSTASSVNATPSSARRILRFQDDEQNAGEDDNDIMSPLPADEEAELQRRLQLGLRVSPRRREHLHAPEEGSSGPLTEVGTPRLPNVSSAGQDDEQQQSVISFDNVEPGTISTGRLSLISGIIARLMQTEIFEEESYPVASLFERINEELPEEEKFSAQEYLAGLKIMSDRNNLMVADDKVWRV

Measured: binding result

B1: Cdc6 (natural protein, S. cerevisiae)
chain: MSAIPITPTKRIRRNLFDDAPATPPRPLKRKKLQFTDVTPESSPEKLQFGSQSIFLRTKALLQKSSELVNLNSSDGALPARTAEYEQVMNFLAKAISEHRSDSLYITGPPGTGKTAQLDMIIRQKFQSLPLSLSTPRSKDVLRHTNPNLQNLSWFELPDGRLESVAVTSINCISLGEPSSIFQKIFDSFQDLNGPTLQIKNMQHLQKFLEPYHKKTTFVVVLDEMDRLLHANTSETQSVRTILELFLLAKLPTVSFVLIGMANSLDMKDRFLSRLNLDRGLLPQTIVFQPYTAEQMYEIVIQKMSSLPTIIFQPMAIKFAAKKCAGNTGDLRKLFDVLRGSIEIYELEKRFLLSPTRGSLNSAQVPLTPTTSPVKKSYPEPQGKIGLNYIAKVFSKFVNNNSTRTRIAKLNIQQKLILCTIIQSLKLNSDATIDESFDHYIKAITKTDTLAPLQRNEFLEICTILETCGLVSIKKTKCKGKTKRFVDKIDVDLDMREFYDEMTKISILKPFLH
notes: Cdc6 of S. cerevisiae
binds: all assays above
